The values that follow come from paper PMC5688999 (RNA, 2017).

Assay [1] deals with T1, Mtr4-ΔN (helicase region of Mtr4, residues 81–1073) (S. cerevisiae, UniProt P47047 81-1073).
T1 sequence (looked up): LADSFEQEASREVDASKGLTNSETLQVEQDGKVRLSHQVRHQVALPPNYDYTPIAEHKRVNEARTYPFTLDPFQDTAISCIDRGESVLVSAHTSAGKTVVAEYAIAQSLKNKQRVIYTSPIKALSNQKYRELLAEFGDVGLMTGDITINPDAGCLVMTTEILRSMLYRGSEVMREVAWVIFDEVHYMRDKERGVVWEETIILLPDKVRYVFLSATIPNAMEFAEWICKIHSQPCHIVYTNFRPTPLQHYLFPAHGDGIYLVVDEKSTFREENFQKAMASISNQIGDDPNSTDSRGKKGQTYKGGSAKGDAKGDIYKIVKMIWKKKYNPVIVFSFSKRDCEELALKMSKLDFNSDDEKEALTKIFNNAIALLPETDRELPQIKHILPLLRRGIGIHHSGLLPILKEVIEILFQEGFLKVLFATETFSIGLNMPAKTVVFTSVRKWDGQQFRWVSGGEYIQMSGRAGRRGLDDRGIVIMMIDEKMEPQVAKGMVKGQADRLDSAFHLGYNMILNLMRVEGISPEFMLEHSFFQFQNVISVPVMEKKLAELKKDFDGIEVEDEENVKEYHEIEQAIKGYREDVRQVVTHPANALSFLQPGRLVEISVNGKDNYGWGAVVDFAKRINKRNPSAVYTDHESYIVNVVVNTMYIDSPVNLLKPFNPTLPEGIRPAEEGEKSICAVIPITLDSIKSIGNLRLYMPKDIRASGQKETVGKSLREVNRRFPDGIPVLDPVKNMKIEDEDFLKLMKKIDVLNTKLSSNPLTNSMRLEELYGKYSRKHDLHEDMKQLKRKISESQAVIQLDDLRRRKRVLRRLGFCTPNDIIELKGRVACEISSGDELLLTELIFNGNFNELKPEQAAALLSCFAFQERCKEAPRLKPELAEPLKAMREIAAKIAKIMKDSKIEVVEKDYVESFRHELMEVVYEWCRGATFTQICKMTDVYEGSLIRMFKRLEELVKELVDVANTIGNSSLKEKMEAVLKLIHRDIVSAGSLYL
Put plainly: ITC.

In assay [2] the target is T2, GST-tagged yeast Mtr4 short arch (GST-Mtr4^SA, residues 638–842), wild type (S. cerevisiae, UniProt P47047 638-842).
T2 sequence (looked up): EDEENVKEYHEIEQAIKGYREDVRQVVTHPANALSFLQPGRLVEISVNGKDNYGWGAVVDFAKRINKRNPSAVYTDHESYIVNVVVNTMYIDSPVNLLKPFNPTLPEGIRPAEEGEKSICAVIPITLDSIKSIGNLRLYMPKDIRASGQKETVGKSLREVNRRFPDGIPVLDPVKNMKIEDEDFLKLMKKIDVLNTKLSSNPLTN
Put plainly: pull-down.

No end group written: not given here.

B1: Utp18_(prot) (Utp18 residues 78–110) (domain or fragment, S. cerevisiae, UniProt P40362 78-110, looked up)
chain: HVNNDQLFFVDDGGNEDSQDKNEDTMDVDDEDD
Turning to B1, in assay [1], the Kd was ~20 µM.

B2: Z-tagged Nop53 (residues 48–99) (domain or fragment, S. cerevisiae, UniProt Q12080 48-99, looked up)
chain: GTSDITSLQNDALFHVDVEGDEILKNKLIKRKQIKKVLKSKEILDAVKTNSK
modifications: also: Z-tagged
As for B2, in assay [2], the binding result is “binds”.

B3: Nop53_(prot) (Nop53 residues 58–91) (domain or fragment, S. cerevisiae, UniProt Q12080 58-91, looked up)
chain: DALFHVDVEGDEILKNKLIKRKQIKKVLKSKEIL
As to B3, in assay [1], the Kd is ~18 µM.
